US20190233498A1 (H LUNDBECK A S, published 2019)

How the values were obtained:
human PACAP38 [1] = target: T1, human PACAP38 (human, not fully specified; C-terminal lysine is amidated; N-terminal or C-terminal biotin in the HTRF and PC-12 cell binding assays); assay: SPR, Ab immobilised
T1 construct: synthetic peptide, bought; also called huPACAP (1-38)
T1 peptide: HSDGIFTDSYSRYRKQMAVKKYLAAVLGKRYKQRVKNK
Experimental: (§1) Binding affinities of monoclonal antibodies for human PACAP were estimated using SPR on the PROTEON™ XPR36 (Bio-Rad, Hercules, Calif.). Antibody was immobilized to the surface of general amine coupling (“GLC” or “GLM”) Chips (Bio-Rad, Hercules, Calif.). A dilution series of human PACAP38 (SEQ ID NO: 1241) prepared in 1×PBST Buffer (4.3 mM Na Phosphate, 1.4 mM K Phosphate, 135 mM NaCl, 2.7 mM KCl 0.05% Polysorbate-20) purchased from Teknova (Cat# P1192, Teknova, Hollister, Calif.) and supplemented with 0.25 M arginine (from J.T. BAKER®), 0.2 mg/ml BSA (Jackson Immuno Research Labs, West Grove, Pa.), and 0.005% sodium azide (VWR International, Radnor, Pa.) with the pH adjusted to 7 was used to query the antibodies. Antigen (ranging from 1.23 nM to 100 nM) was typically run sequentially with association times of 2-4 minutes and dissociation times of 3-120 minutes grouped with the PROTEON™ Manager Software (v3.1.0.6 (Bio-Rad, Hercules, Calif.)) and fitted using a 1:1 Langmuir binding model. Surfaces were regenerated between analyte queries using 0.85% Phosphoric Acid.

human PACAP27 [2] = target: T2, human PACAP27 (human, C-terminal leucine is amidated; 125I-labelled in Example 10); assay: SPR, Ab immobilised
T2 peptide: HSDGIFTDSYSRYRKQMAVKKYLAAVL
Experimental: [The procedure below names another target; the source says it served here with some conditions changed.] as §1

human VIP = target: T3, human VIP (human); assay: SPR, Ab immobilised
T3 construct: also called Vasoactive Intestinal Peptide
T3 peptide: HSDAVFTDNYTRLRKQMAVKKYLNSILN
Experimental: [The procedure below names another target; the source says it served here with some conditions changed.] as §1

human PACAP38 [3] = target: T1, human PACAP38; assay: cell-based or functional assay
human PACAP27 [4] = target: T2, human PACAP27; assay: cell-based or functional assay
human PACAP38 [5] = target: T1, human PACAP38; assay: cell-based or functional assay
human PACAP38 [6] = target: T1, human PACAP38; assay: cell-based or functional assay
human PACAP38 [7] = target: T1, human PACAP38; assay: HTRF binding, biotin-PACAP38
Experimental: In parallel, 10 μl of an antibody dilution series (highest final concentration of 100 nM) were incubated with 10 μl of N-terminal or C-terminal biotinylated PACAP38 (35 nM final) alone, or in combination with either PACAP27 (350 nM final) or VIP (350 nM final), i.e., 10× PACAP27 or 10×VIP, respectively, in a HTRF plate. 20 μl of Eu³⁺ cryptate labeled anti-hu Fc donor and 20 μl of d2-labeled streptavidin acceptor were added to each well and incubated for 1 hour at room temperature. Fluorescence was measured at 620 and 665 nm with a delay of 300 μsec.
EC₅₀ values, i.e. the concentration of an antibody that yields a response halfway between the baseline and the maximum value within a specified time period, were computed for each antibody based upon their binding curves and are shown in Table 1 below. […] A humanized form of antibody Ab1 was produced and is identified by an appended “.H”, i.e., Ab1.H, and it also bound PACAP38 with high affinity.

human PACAP38 [8] = target: T1, human PACAP38; assay: inhibition of 100 nM biotin-PACAP38 binding to PC-12 cells, TRF
Experimental: To identify antibodies that block PACAP38 binding to PAC1-R-expressing cells, adherent PC-12 cells (ATCC, Manassas, Va.) expressing PAC1-R were used in a Europium-based PAC1-R expressing cells binding assay.
Antibody solutions were incubated with N-terminal biotinylated PACAP38 at 10× the final concentration (100 nM or 30 nM) for 1 hr, then added to PC-12 cells that were plated 24 hrs. prior in black clear bottom 96 well plates (COSTAR™, Corning Incorporated, Corning, N.Y.) and further incubated for 1 hr at room temperature. After three washes, the cells were incubated with 20 μl Europium-labeled streptavidin (PerkinElmer, Waltham, Mass.) for 1 hr at room temperature. Cells were washed three times, then 20 μl DELFIA® Enhancement solution (PerkinElmer, Waltham, Mass.) was added to each well and incubated for 15 minutes with gentle shaking. Plates were read (Time Resolved Fluorescence (“TRF”)) on SPECTRAMAX® (Molecular Devices, Sunnyvale, Calif.) plate reader.
FIGS. 14A-14BB are representative of the inhibition curves obtained by this method (results are shown for Ab1, Ab2, Ab3, Ab4, Ab5, Ab6, Ab7, Ab8, Ab9, Ab10, Ab11, Ab12, Ab13, Ab14, Ab15, Ab16, Ab17, Ab18, Ab19, Ab1.H, Ab10.H, Ab22, Ab23, Ab3.H, Ab4.H, Ab5.H, Ab9.H, and Ab12.H, respectively) wherein the PAC1-R expressing cells were PC-12 cells.

B1: anti-PACAP antibody Ab10.H (antibody, V domains shown)
VH: EVQLVESGGGLVQPGGSLRLSCAASGIDLNSYYMTWVRQAPGKGLEWIGFIDAGGDAYYASWAKGRFTISRDNSKNTVYLQMNSLRAEDTAVYFCARDLDLWGQGTLVTVSS
VL: DAQLTQSPSTLSASVGDRVTITCQSSESVYGNYLAWFQQKPGKAPKFLIYEASKLESGVPSRFSGSGSGTEFTLTISSLQPDDFATYYCAGGDISEGVAFGGGTKVEIKR
Human PACAP38 [1]
  Kd: 0.029 nM
  koff: 1e-05 s⁻¹

B2: anti-PACAP antibody Ab3 (antibody, human IgG1, kappa, N297A, V domains shown)
VH: QEQLVESGGGLVQPEGSLTLTCTASGFSFSSSDYMCWVRQAPGKGLEWIGCIDAGSSGDTYFASWAKGRFTISKTSSTTVTLQMTSLTAADTATYFCARHLYGSITFAFGLWGQGTLVTVSS
VL: AAVLTQTPSPVSAAVGGTVTINCQASQSIGSDLAWYQQKPGQPPKLLIYDASTLASGVPSRFSGSGSGTQFTLTISGVQCDDAATYYCQGTYYSSGWYTAFGGGTEVVVKR
notes: full-length rabbit/human chimeric antibody
Human PACAP38 [1]
  Kd: 0.16 nM
  koff: 4.2e-05 s⁻¹
  kon: 260000 M⁻¹ s⁻¹
Human PACAP27 [2]
  Kd: 0.37 nM
  koff: 0.00014 s⁻¹
  kon: 370000 M⁻¹ s⁻¹
Human VIP
  Kd: 100000 µM
  koff: 0.1 s⁻¹
Human PACAP38 [3]
  IC50, 0.1 nM PACAP38-induced PAC1-R mediated cAMP increase: 0.227 nM
Human PACAP27 [4]
  IC50, 0.1 nM PACAP27-induced PAC1-R mediated cAMP increase: 0.09 nM
Human PACAP38 [5]
  IC50, 5 nM PACAP38-induced human VPAC1-R mediated cAMP increase: 0.00174 µM
Human PACAP38 [6]
  IC50, 1 nM PACAP38-induced human VPAC2-R mediated cAMP increase: 0.000667 µM
Human PACAP38 [7]
  EC50: 0.00045 µM
Human PACAP38 [8]
  IC50: 0.0172 µM

B3: anti-PACAP antibody Ab10 (antibody, V domains shown)
VH: QSVEESGGRLVTPGTPLTLTCTVSGIDLNSYYMTWVRQAPGKGLEWIGFIDAGGDAYYASWAKGRFTISKTSTTVDLKITSPTTEDTATYFCARDLDLWGQGTLVTVSS
VL: AAVLTQTPSPVSAAVGGTVTINCQSSESVYGNYLAWFQQKPGQPPKLLIYEASKLESGVPSRFSGSGSGTQFTLTISDLQCDDAATYYCAGGDISEGVAFGGGTEVVVKR
Human PACAP27 [2]
  Kd: 0.01 nM
  koff: 1e-05 s⁻¹

B4: anti-PACAP antibody Ab11 (antibody, human IgG1, kappa, N297A, V domains shown)
VH: QSVEESGGRLVTPGTPLTLTCTASGFSLSRYAMGWVRQAPGKGLEWIGDISTYGTTDYASWVNGRFTISRTSTTVTLKMTSLTTEDTATYFCARDYWLSLWGQGTLVTVSS
VL: AAVLTQTPSPVSAAVGGTVTIKCQSSQSVYDNNALAWYQQKPGQPPKLLIYAASNLASGVPDRFSGSGSGTQFTLTISGVQCDDAATYYCLGGYDDAADNAFGGGTEVVVKR
notes: as for B2
Human PACAP38 [1]
  Kd: 0.11 nM
  koff: 3.1e-05 s⁻¹
  kon: 270000 M⁻¹ s⁻¹
Human PACAP27 [2]
  Kd: 0.42 nM
  koff: 0.00011 s⁻¹
  kon: 260000 M⁻¹ s⁻¹
Human VIP
  Kd: 0.23 µM
  koff: 0.047 s⁻¹
  kon: 200000 M⁻¹ s⁻¹
Human PACAP38 [3]
  IC50, 0.1 nM PACAP38-induced PAC1-R mediated cAMP increase: 0.0567 nM
Human PACAP27 [4]
  IC50, 0.1 nM PACAP27-induced PAC1-R mediated cAMP increase: 0.109 nM
Human PACAP38 [5]
  IC50, 5 nM PACAP38-induced human VPAC1-R mediated cAMP increase: 0.000541 µM
Human PACAP38 [6]
  IC50, 1 nM PACAP38-induced human VPAC2-R mediated cAMP increase: 0.000265 µM
Human PACAP38 [7]
  EC50: 0.00053 µM
Human PACAP38 [8]
  IC50: 0.0246 µM
